From PMC3575483

Biological target: Purified native (non-tagged) D. radiodurans DR1245 protein (D. radiodurans)
Experiment: SEC; Sephacryl S-300 16/60 HR gel filtration column of purified native DR1245

Purified native (non-tagged) D. radiodurans DR1245 protein (natural protein)
stoichiometry N: 2
